For experiment [1], the target named is T1, human recombinant melanocortin-4 receptor (human, UniProt P32245 1-332).
T1 construct: whole, on cells; cAMP assays used the whole cells; also called hMC4-R; MC4-R
The experiment is described as follows: competitive inhibition of Eu-NDP-α-MSH (TRF), hMC4-R HEK-293 membranes. As to the method:
After incubation for 90 minutes at 37° C., the reaction was stopped by filtration over AcroWell 96-well filter plates (Pall Life Sciences). The filter plates were washed 4 times with 200 μL of ice-cold phosphate-buffered saline. DELFIA Enhancement solution (PerkinElmer Life Sciences) was added to each well. The plates were incubated on a shaker for 15 minutes and read at 340 nm excitation and 615 nm emission wavelengths. Each assay was conducted in duplicate and mean values were utilized. Ki values were determined by curve-fitting with Graph-Pad Prism® software using a one-site fixed-slope competition binding model.
(§1) 9.1 Peptides of the following structures were synthesized by the general methods described above, and averaged MC4-R Ki values for peptides were determined as indicated. […] Ki values marked “ND” were not determined.

For experiment [2], the target named is T1, human recombinant melanocortin-4 …. Briefly: cell-based or functional assay.
Experiment [3] concerns the target T2, human recombinant melanocortin-3 receptor (human, UniProt P41968 1-323).
T2 construct: whole, on cells; Membrane homogenates of HEK-293 cells expressing the receptor; also called hMC3-R; MC3-R
Briefly: competitive binding vs Eu-labeled NDP-α-MSH.

Experiment [4] concerns the target T3, endogenous MC1-R of B-16 mouse melanoma cells (mouse, UniProt Q01727 1-315).
T3 construct: whole, on cells; membrane homogenates; also called mouse B16 MC1-R
Briefly: competitive binding vs Eu-labeled NDP-α-MSH.

In experiment [5] the target is T1, human recombinant melanocortin-4 …. Briefly: competitive inhibition of labelled NDP-α-MSH, hMC4-R membranes.
Experiment [6] addresses T4, human recombinant melanocortin-1 receptor (human, UniProt Q01726 1-317). Briefly: cell-based or functional assay.
In experiment [7] the target is T1, human recombinant melanocortin-4 …. Briefly: cell-based or functional assay. The source holds these as a separate data set.
Experiment [8] has the same target. The experiment is described as follows: competitive inhibition of [I125]-NDP-α-MSH, hMC4-R HEK-293 membranes. As to the method:
(§2) A competitive inhibition binding assay is performed using membrane homogenates prepared from HEK-293 cells that express recombinant hMC4-R, hMC3-R, or hMC5-R, and from B-16 mouse melanoma cells (containing endogenous MC1-R). In some instances, HEK-293 cells that express recombinant hMC1-R were employed. In the examples that follow, all MC3-R, MC4-R and MC5-R values are for human recombinant receptors. […] Membrane homogenates were incubated with 0.2 nM (for hMC4-R) 0.4 nM (for MC3-R and MC5-R) or 0.1 nM (for mouse B16 MC1-R or hMC1-R) [I¹²⁵]-NDP-α-MSH (Perkin Elmer) and increasing concentrations of test peptides of the present invention in buffer containing 25 mM HEPES buffer (pH 7.5) with 100 mM NaCl, 2 mM CaCl₂, 2 mM MgCl₂, 0.3 mM 1,10-phenanthroline, and 0.2% bovine serum albumin. After incubation for 60 minutes at 37° C., the assay mixture was filtered and the membranes washed three times with ice-cold buffer. Filters were dried and counted in a gamma counter for bound radioactivity. […] Maximal specific binding (100%) was defined as the difference in radioactivity (cpm) bound to cell membranes in the absence and presence of 1 μM NDP-α-MSH. […] Each assay was conducted in triplicate and the actual mean values are described, with results less than 0% reported as 0%. Ki values for test peptides of the present invention were determined using Graph-Pad Prism® curve-fitting software.
as §1

Experiment [9] has as its target T3, endogenous MC1-R of B-16 mouse melanoma …. The experiment is described as follows: competitive binding vs [I125]-NDP-α-MSH. As to the method: (§3) After incubation for 60 minutes at 37° C., the assay mixture was filtered and the membranes washed three times with ice-cold buffer. Filters were dried and counted in a gamma counter for bound radioactivity. […] Maximal specific binding (100%) was defined as the difference in radioactivity (cpm) bound to cell membranes in the absence and presence of 1 μM NDP-α-MSH. […] Each assay was conducted in triplicate and the actual mean values are described, with results less than 0% reported as 0%. Ki values for test peptides of the present invention were determined using Graph-Pad Prism® curve-fitting software.

The target in experiment [10] is T2, human recombinant melanocortin-3 …. The experiment is described as follows: competitive binding vs [I125]-NDP-α-MSH. As to the method:
as §3

Experiment [11] deals with T1, human recombinant melanocortin-4 …. The experiment is described as follows: ratio of Ki values, hMC1-R as reference.
Experiment [12] concerns the target T4, human recombinant melanocortin-1 …. The experiment is described as follows: competitive inhibition of labelled NDP-α-MSH, hMC1-R membranes. As to the method:
as §2

Bridge positions count the residues as written; N and C are the ends. Square brackets hold non-standard residues; d marks the D form. * marks the point of attachment. Aad = N[C@@H](CCCC(=O)O)C(=O)O; Orn = NCCC[C@H](N)C(=O)O; Dab = NCC[C@H](N)C(=O)O; NHcPr = C1CC1N* Bounds are passed on as bounds.

T3 sequence (Q01727 whole entry): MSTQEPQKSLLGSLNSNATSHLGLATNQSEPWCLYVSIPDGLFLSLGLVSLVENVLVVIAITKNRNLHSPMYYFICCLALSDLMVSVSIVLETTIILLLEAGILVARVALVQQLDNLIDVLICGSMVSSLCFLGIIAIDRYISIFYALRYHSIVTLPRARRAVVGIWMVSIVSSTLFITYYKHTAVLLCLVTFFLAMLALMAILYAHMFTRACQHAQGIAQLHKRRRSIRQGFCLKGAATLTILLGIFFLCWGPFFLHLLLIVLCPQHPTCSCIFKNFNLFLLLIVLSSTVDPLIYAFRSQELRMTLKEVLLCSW
T2 sequence (P41968 whole entry): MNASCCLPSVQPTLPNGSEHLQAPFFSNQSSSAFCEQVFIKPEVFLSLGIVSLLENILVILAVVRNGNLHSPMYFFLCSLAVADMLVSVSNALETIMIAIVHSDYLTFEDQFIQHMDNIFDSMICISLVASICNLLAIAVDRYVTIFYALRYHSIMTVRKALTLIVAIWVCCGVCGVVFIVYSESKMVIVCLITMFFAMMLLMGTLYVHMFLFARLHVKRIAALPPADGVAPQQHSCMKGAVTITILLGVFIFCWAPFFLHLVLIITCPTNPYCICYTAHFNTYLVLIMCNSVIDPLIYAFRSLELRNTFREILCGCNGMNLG
T4 sequence (Q01726 whole entry): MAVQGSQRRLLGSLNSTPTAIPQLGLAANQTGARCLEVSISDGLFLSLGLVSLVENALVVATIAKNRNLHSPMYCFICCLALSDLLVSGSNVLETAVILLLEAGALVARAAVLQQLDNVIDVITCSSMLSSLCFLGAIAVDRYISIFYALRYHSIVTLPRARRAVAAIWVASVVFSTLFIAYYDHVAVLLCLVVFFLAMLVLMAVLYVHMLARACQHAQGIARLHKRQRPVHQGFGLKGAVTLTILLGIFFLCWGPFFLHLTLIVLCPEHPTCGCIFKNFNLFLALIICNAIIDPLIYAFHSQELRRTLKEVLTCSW
T1 sequence (P32245 whole entry): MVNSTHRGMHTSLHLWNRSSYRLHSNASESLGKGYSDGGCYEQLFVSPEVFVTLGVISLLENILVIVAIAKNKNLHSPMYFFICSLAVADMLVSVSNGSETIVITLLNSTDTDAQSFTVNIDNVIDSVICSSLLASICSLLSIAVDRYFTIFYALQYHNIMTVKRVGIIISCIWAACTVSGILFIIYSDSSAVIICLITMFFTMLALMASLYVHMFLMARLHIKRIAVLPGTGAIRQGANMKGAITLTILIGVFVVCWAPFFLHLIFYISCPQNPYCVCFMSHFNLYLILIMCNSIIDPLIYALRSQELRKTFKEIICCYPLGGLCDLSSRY

Usually Ki stands for the equilibrium dissociation constant of an inhibitor or competing ligand from its target. In the case of Ac-[dR][Orn]H[dF]RWE-NH2 (lactam 2-7, also called peptide No. 98) [Ac-D-Arg-cyclo(Orn-His-D-Phe-Arg-Trp-Glu)-NH2], the Ki in experiment [1] was found to be 4 nM.

Regarding Ac-RDV[dF]RWK-NH2 (lactam 2-7, also called peptide No. 16) [Ac-Arg-cyclo(Asp-Val-D-Phe-Arg-Trp-Lys)-NH2], the “intrinsic activity (cAMP; NDP-α-MSH = 100%)” value in experiment [2] was 42%. The Ki in experiment [3] came out at 1060 nM; in [4], 323 nM.

For the molecule Ac-[dR]DQ[dF]RWK-NH2 (lactam 2-7, also called peptide No. 71) [Ac-D-Arg-cyclo(Asp-Gln-D-Phe-Arg-Trp-Lys)-NH2], in experiment [5], the Ki was determined as 45 nM. Also, the “hMC1-R Emax (%)” value in experiment [6] was 88%. In experiment [7], the “hMC4-R EC50” value amounted to 2 nM and the “hMC4-R Emax (%)” value came out at 89%. The Ki in [8] was 45 nM.

Ac-REH[dF]RW[Orn]-NHEt (lactam 2-7, also called peptide No. 109) [Ac-Arg-cyclo(Glu-His-D-Phe-Arg-Trp-Orn)-NH-Et]: the Ki in experiment [1] came to 6 nM.

For Ac-RDH[dF]RWK-NH2 (lactam 2-7, also called peptide No. 1) [Ac-Arg-cyclo(Asp-His-D-Phe-Arg-Trp-Lys)-NH2], the “intrinsic activity (cAMP; NDP-α-MSH = 100%)” value in experiment [2] is 91%. Moreover, the Ki was 103 nM in experiment [3], 4 nM in experiment [4] and 3 nM in experiment [9].

B1: Ac-Arg-cyclo(Asp-Gln-D-Phe-Arg-Trp-Lys)-NH2 (peptide)
peptide: Ac-RDQ[dF]RWK-NH2
modifications: lactam 2-7
notes: any difference is only in the drawings; also called peptide No. 32
For the molecule B1, the “EC50 (cAMP)” value in [2] came out at 17 nM. For the same molecule, the “intrinsic activity (cAMP; NDP-α-MSH = 100%)” value in [2] stood at 98%. The Ki was 673 nM in experiment [4], 340 nM in experiment [10] and 133 nM in [9].

B2: Ac-Arg-cyclo(Dab-Gln-D-Phe-Arg-Trp-hGlu)-NH2 (peptide)
peptide: RXQFRWX
modifications: N-acetyl; X2 = Dab; D-Phe 4; X7 = hGlu; side-chain lactam Dab2-hGlu7; C-terminal amide
notes: also called peptide No. 159
With B2, the Ki in experiment [5] turned out to be 4 nM. In addition, the “binding selectivity, MC4-R against MC1-R” value in experiment [11] is ≥ 20 fold. The Ki in experiment [12] came out at 133 nM. In addition, in experiment [6], the “hMC1-R EC50” value was determined as 26 nM and the “hMC1-R Emax (%)” value is 98%. For the same molecule, in experiment [7], the “hMC4-R EC50” value was 0.825 nM and the “hMC4-R Emax (%)” value came out at 99%. In addition, the Ki in [8] was 4 nM.

For the molecule Ac-R[Aad]N[dF]RW[Dab]-NH2 (lactam 2-7, also called peptide No. 160) [Ac-Arg-cyclo(hGlu-Asn-D-Phe-Arg-Trp-Dab)-NH2], the Ki was found to be 8 nM in [5], 295 nM in experiment [12] and 8 nM in [8]. For the same molecule, the “hMC4-R EC50” value in experiment [7] turned out to be 0.245 nM. Besides, the “hMC4-R Emax (%)” value in experiment [7] worked out at 98%.

As to Ac-RE[Orn][dF]RW[Orn]-NH2 (lactam 2-7, also called peptide No. 104) [Ac-Arg-cyclo(Glu-Orn-D-Phe-Arg-Trp-Orn)-NH2], in experiment [1], the Ki was 9 nM.

Turning to Ac-R[Dab]H[dF]RW[Aad]-NH2 (lactam 2-7) [Ac-Arg-cyclo(Dab-His-D-Phe-Arg-Trp-hGlu)-NH2], the “intrinsic activity (cAMP; NDP-α-MSH = 100%)” value in experiment [2] worked out at 95%.

Regarding Ac-R[Orn][Dab][dF]RWE-NH2 (lactam 2-7, also called peptide No. 119) [Ac-Arg-cyclo(Orn-Dab-D-Phe-Arg-Trp-Glu)-NH2], in [1], the Ki stood at 3 nM.

On to Ac-REH[dF]RW[Orn]-NHcPr (lactam 2-7, also called peptide No. 110) [Ac-Arg-cyclo(Glu-His-D-Phe-Arg-Trp-Orn)-NH-cyclopropyl], for which, in experiment [1], the Ki was found to be 1 nM.

Take Ac-R[Orn]N[dF]RWE-NH2 (lactam 2-7, also called peptide No. 154) [Ac-Arg-cyclo(Orn-Asn-D-Phe-Arg-Trp-Glu)-NH2]: the Ki in experiment [12] was found to be 688 nM. The “hMC1-R EC50” value in experiment [6] worked out at 25 nM.

As for Ac-[dR][Orn]N[dF]RWE-NH2 (lactam 2-7, also called peptide No. 156) [Ac-D-Arg-cyclo(Orn-Asn-D-Phe-Arg-Trp-Glu)-NH2], the Ki in [12] was 840 nM. In [6], the “hMC1-R EC50” value came out at 80 nM and the “hMC1-R Emax (%)” value amounted to 81%.

Turning to Ac-[dR][Orn]Q[dF]RWE-NH2 (lactam 2-7) [Ac-D-Arg-cyclo(Orn-Gln-D-Phe-Arg-Trp-Glu)-NH2], the “hMC1-R Emax (%)” value in experiment [6] is 85%. The “hMC4-R Emax (%)” value in experiment [7] was 89%.

Take Ac-R[Orn]Q[dF]RWE-NH2 (lactam 2-7) [Ac-Arg-cyclo(Orn-Gln-D-Phe-Arg-Trp-Glu)-NH2]: in experiment [6], the “hMC1-R Emax (%)” value was 89%.

For the molecule Ac-RKN[dF]RWD-NH2 (lactam 2-7) [Ac-Arg-cyclo(Lys-Asn-D-Phe-Arg-Trp-Asp)-NH2], the Ki in experiment [5] is 5 nM. Moreover, the “binding selectivity, MC4-R against MC1-R” value in experiment [11] is ≥ 20 fold. For the same molecule, in experiment [12], the Ki amounted to 240 nM. Moreover, in [6], the “hMC1-R EC50” value was 14 nM and the “hMC1-R Emax (%)” value stood at 91%. In experiment [7], the “hMC4-R EC50” value was found to be 0.189 nM and the “hMC4-R Emax (%)” value turned out to be 97%. Further, the Ki in [8] came out at 5 nM.

Ac-RD[Pro(4R-2-Cl-Bzl)][dF]RWK-NH2 (lactam 2-7, also called peptide No. 123) [Ac-Arg-cyclo(Asp-Pro(4R-2-Cl-Bzl)-D-Phe-Arg-Trp-Lys)-NH2]: the Ki in experiment [1] worked out at 8 nM.

B3: Ac-Arg-cyclo(Lys-Asn-D-Phe-Arg-Nal 2-Asp)-NH2 (peptide)
peptide: RKNFRXD
HELM: PEPTIDE1{[ac].R.K.N.[dF].R.[O=C([C@H](Cc1ccc2ccccc2c1)N[*:1])[*:2]].D.[am]}$PEPTIDE1,PEPTIDE1,3:R3-8:R3$$$V2.0
SMILES: CC(=O)N[C@@H](CCCNC(=N)N)C(=O)N[C@H]1CCCCNC(=O)C[C@@H](C(N)=O)NC(=O)[C@H](Cc2ccc3ccccc3c2)NC(=O)[C@H](CCCNC(=N)N)NC(=O)[C@@H](Cc2ccccc2)NC(=O)[C@H](CC(N)=O)NC1=O
notes: also called peptide No. 162
Turning to B3, the Ki in experiment [5] was determined as 5 nM; in experiment [12], 255 nM; in experiment [8], 5 nM. Also, the “binding selectivity, MC4-R against MC1-R” value in experiment [11] is ≥ 20 fold. Further, the “hMC1-R EC50” value in experiment [6] is 22 nM. The “hMC1-R Emax (%)” value in experiment [6] worked out at 89%. In experiment [7], the “hMC4-R EC50” value was 0.85 nM. The “hMC4-R Emax (%)” value in experiment [7] worked out at 82%.

On to Ac-RD[Pro(4R-3-Cl-Bzl)][dF]RWK-NH2 (lactam 2-7, also called peptide No. 124) [Ac-Arg-cyclo(Asp-Pro(4R-3-Cl-Bzl)-D-Phe-Arg-Trp-Lys)-NH2], for which, in [1], the Ki was found to be 19 nM.

Turning to Ac-REN[dF]RW[Orn]-NH2 (lactam 2-7, also called peptide No. 161) [Ac-Arg-cyclo(Glu-Asn-D-Phe-Arg-Trp-Orn)-NH2], the Ki in [5] stood at 6 nM; in [12] it was 155 nM; in [8], 6 nM. In experiment [11], the “binding selectivity, MC4-R against MC1-R” value was ≥ 20 fold. The “hMC1-R EC50” value in experiment [6] stood at 13 nM. Moreover, the “hMC1-R Emax (%)” value in experiment [6] came to 85%. Besides, the “hMC4-R EC50” value in [7] amounted to 0.413 nM. Besides, in [7], the “hMC4-R Emax (%)” value was determined as 91%.

These data come from patent publication US20120178701A1 (PALATIN TECHNOLOGIES, published 2012).
